Assay results: article PMC8472245

Biological target: FLAG-tagged KSHV ORF33
Test: ELISA
Details: parent: est. 0.68; read off a plot

Substance | response [Absorbance]
GST-tagged KSHV ORF45-C19 (from UniProt F5HDE4) C396A | 0.058
GST-tagged KSHV ORF45-C19 (from UniProt F5HDE4) D407A | 0.69
GST-tagged KSHV ORF45-C19 (from UniProt F5HDE4) G397A | 0.19
GST-tagged KSHV ORF45-C19 (from UniProt F5HDE4) L395A | 0.21
GST-tagged KSHV ORF45-C19 (from UniProt F5HDE4) L406A | 0.44
GST-tagged KSHV ORF45-C19 (from UniProt F5HDE4) N402A | 0.69
GST-tagged KSHV ORF45-C19 (from UniProt F5HDE4) P393A | 0.42
GST-tagged KSHV ORF45-C19 (from UniProt F5HDE4) P394A | 0.058
GST-tagged KSHV ORF45-C19 (from UniProt F5HDE4) P404A | 0.09
GST-tagged KSHV ORF45-C19 (from UniProt F5HDE4) T392A | 0.085
GST-tagged KSHV ORF45-C19 (from UniProt F5HDE4) W403A | 0.07
GST-tagged KSHV ORF45-C19 (from UniProt F5HDE4) W405A | 0.058
GST-tagged KSHV ORF45-C19 (from UniProt F5HDE4) Y401A | 0.058

Biological target: FLAG-tagged KSHV ORF33 (Kaposi sarcoma-associated herpesvirus (KSHV))
Sequence (F5HEF2 whole entry): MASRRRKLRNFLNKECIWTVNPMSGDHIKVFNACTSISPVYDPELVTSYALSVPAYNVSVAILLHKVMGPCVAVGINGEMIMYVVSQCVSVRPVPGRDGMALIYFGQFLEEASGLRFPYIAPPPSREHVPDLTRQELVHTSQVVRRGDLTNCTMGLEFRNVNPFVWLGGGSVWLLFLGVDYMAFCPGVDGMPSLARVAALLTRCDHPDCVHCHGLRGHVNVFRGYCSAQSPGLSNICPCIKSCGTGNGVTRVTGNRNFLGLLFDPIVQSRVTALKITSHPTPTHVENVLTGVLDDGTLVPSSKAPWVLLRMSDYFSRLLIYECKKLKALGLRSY
Test: not given
Details: not given

Substance | yield of extracellular KSHV genomes (qPCR) from induced iSLK.BAC16 cells treated with the peptide, up to 200 uM, 5 days; the peptide blocks ORF45-ORF33 [µM]
TAT-C19 peptide (from UniProt F5HDE4 389-407) | 34.1
